# Experimental data from US20160109449A1 (JULIUS MAXIMILIANS UNIVERSITAET WUERZBURG, published 2016).
# T1: IsaA oligopeptide SEQ ID NO: 34 (Staphylococcus aureus)
# T1 construct: Synthetic 15-mer of IsaA, spotted on a glass slide
# T1 peptide: DYTTSYNQGSDVQSV
# T2: IsaA oligopeptide SEQ ID NO: 48 (Staphylococcus aureus)
# T2 construct: Synthetic 15-mer of IsaA, spotted on a glass slide
# T2 peptide: TGSSAAQIMAQRTGV
# T3: IsaA oligopeptide SEQ ID NO: 46 (Staphylococcus aureus)
# T3 construct: Synthetic 15-mer of IsaA, spotted on a glass slide
# T3 peptide: SNGNTAGATGSSAAQ
# T4: IsaA oligopeptide SEQ ID NO: 33 (Staphylococcus aureus)
# T4 construct: Synthetic 15-mer of IsaA, spotted on a glass slide
# T4 peptide: VAGADYTTSYNQGSD
# T5: IsaA oligopeptide SEQ ID NO: 22 (Staphylococcus aureus)
# T5 construct: Synthetic 15-mer of IsaA, spotted on a glass slide
# T5 peptide: APIKDGAYDIHFVKD
# T6: IsaA oligopeptide SEQ ID NO: 53 (Staphylococcus aureus)
# T6 construct: Synthetic 15-mer of IsaA, spotted on a glass slide
# T6 peptide: AAIIARESNGQVNAY
# T7: IsaA oligopeptide SEQ ID NO: 20 (Staphylococcus aureus)
# T7 construct: Synthetic 15-mer of IsaA, spotted on a glass slide
# T7 peptide: NHQDQLNAAPIKDGA
# T8: IsaA oligopeptide SEQ ID NO: 32 (Staphylococcus aureus)
# T8 construct: Synthetic 15-mer of IsaA, spotted on a glass slide
# T8 peptide: GFSNVAGADYTTSYN
# T9: IsaA oligopeptide SEQ ID NO: 26 (Staphylococcus aureus)
# T9 construct: Synthetic 15-mer of IsaA, spotted on a glass slide
# T9 peptide: FQYNFTSNGTTWSWS
# T10: IsaA oligopeptide SEQ ID NO: 39 (Staphylococcus aureus)
# T10 construct: Synthetic 15-mer of IsaA, spotted on a glass slide
# T10 peptide: SSNSNVEAVSAPTYH
# T11: IsaA oligopeptide SEQ ID NO: 59 (Staphylococcus aureus)
# T11 construct: Synthetic 15-mer of IsaA, spotted on a glass slide
# T11 peptide: QTMPGWGPTNTVDQQ
# T12: IsaA oligopeptide SEQ ID NO: 50 (Staphylococcus aureus)
# T12 construct: Synthetic 15-mer of IsaA, spotted on a glass slide
# T12 peptide: MAQRTGVSASTWAAI
# T13: IsaA oligopeptide SEQ ID NO: 52 (Staphylococcus aureus)
# T13 construct: Synthetic 15-mer of IsaA, spotted on a glass slide
# T13 peptide: ASTWAAIIARESNGQ
# T14: IsaA oligopeptide SEQ ID NO: 58 (Staphylococcus aureus)
# T14 construct: Synthetic 15-mer of IsaA, spotted on a glass slide
# T14 peptide: SGLFQTMPGWGPTNT
# T15: IsaA oligopeptide SEQ ID NO: 45 (Staphylococcus aureus)
# T15 construct: Synthetic 15-mer of IsaA, spotted on a glass slide
# T15 peptide: SVRLSNGNTAGATGS
# T16: IsaA oligopeptide SEQ ID NO: 17 (Staphylococcus aureus)
# T16 construct: Synthetic 15-mer of IsaA, spotted on a glass slide
# T16 peptide: NVDQAHLVDLAHNHQ
# T17: IsaA oligopeptide SEQ ID NO: 64 (Staphylococcus aureus)
# T17 construct: Synthetic 15-mer of IsaA, spotted on a glass slide
# T17 peptide: AVKAYKAQGLGAWGF
# T18: IsaA oligopeptide SEQ ID NO: 51 (Staphylococcus aureus)
# T18 construct: Synthetic 15-mer of IsaA, spotted on a glass slide
# T18 peptide: TGVSASTWAAIIARE
# T19: IsaA oligopeptide SEQ ID NO: 35 (Staphylococcus aureus)
# T19 construct: Synthetic 15-mer of IsaA, spotted on a glass slide
# T19 peptide: SYNQGSDVQSVSYNA
# T20: IsaA oligopeptide SEQ ID NO: 42 (Staphylococcus aureus)
# T20 construct: Synthetic 15-mer of IsaA, spotted on a glass slide
# T20 peptide: TYHNYSTSTTSSSVR
# T21: IsaA oligopeptide SEQ ID NO: 27 (Staphylococcus aureus)
# T21 construct: Synthetic 15-mer of IsaA, spotted on a glass slide
# T21 peptide: FTSNGTTWSWSYEAA
# T22: IsaA oligopeptide SEQ ID NO: 61 (Staphylococcus aureus)
# T22 construct: Synthetic 15-mer of IsaA, spotted on a glass slide
# T22 peptide: TNTVDQQINAAVKAY
# T23: IsaA oligopeptide SEQ ID NO: 57 (Staphylococcus aureus)
# T23 construct: Synthetic 15-mer of IsaA, spotted on a glass slide
# T23 peptide: PSGASGLFQTMPGWG
# T24: IsaA oligopeptide SEQ ID NO: 9 (Staphylococcus aureus)
# T24 construct: Synthetic 15-mer of IsaA, spotted on a glass slide
# T24 peptide: MKKTIMASSLAVALG
# T25: IsaA oligopeptide SEQ ID NO: 21 (Staphylococcus aureus)
# T25 construct: Synthetic 15-mer of IsaA, spotted on a glass slide
# T25 peptide: QLNAAPIKDGAYDIH
# T26: IsaA oligopeptide SEQ ID NO: 11 (Staphylococcus aureus)
# T26 construct: Synthetic 15-mer of IsaA, spotted on a glass slide
# T26 peptide: SLAVALGVTGYAAGT
# T27: IsaA oligopeptide SEQ ID NO: 47 (Staphylococcus aureus)
# T27 construct: Synthetic 15-mer of IsaA, spotted on a glass slide
# T27 peptide: TAGATGSSAAQIMAQ
# T28: IsaA oligopeptide SEQ ID NO: 63 (Staphylococcus aureus)
# T28 construct: Synthetic 15-mer of IsaA, spotted on a glass slide
# T28 peptide: NAAVKAYKAQGLGAW
# T29: IsaA oligopeptide SEQ ID NO: 24 (Staphylococcus aureus)
# T29 construct: Synthetic 15-mer of IsaA, spotted on a glass slide
# T29 peptide: DIHFVKDGFQYNFTS
# T30: IsaA oligopeptide SEQ ID NO: 25 (Staphylococcus aureus)
# T30 construct: Synthetic 15-mer of IsaA, spotted on a glass slide
# T30 peptide: VKDGFQYNFTSNGTT
# T31: IsaA oligopeptide SEQ ID NO: 43 (Staphylococcus aureus)
# T31 construct: Synthetic 15-mer of IsaA, spotted on a glass slide
# T31 peptide: YSTSTTSSSVRLSNG
# T32: IsaA oligopeptide SEQ ID NO: 54 (Staphylococcus aureus)
# T32 construct: Synthetic 15-mer of IsaA, spotted on a glass slide
# T32 peptide: ARESNGQVNAYNPSG
# T33: IsaA oligopeptide SEQ ID NO: 18 (Staphylococcus aureus)
# T33 construct: Synthetic 15-mer of IsaA, spotted on a glass slide
# T33 peptide: AHLVDLAHNHQDQLN
# B1: monoclonal antibody MAB-UK-66 secreted by hybridoma cell line DSM ACC2987 (antibody, V domains shown)
# VH: DVKLVESGGGLVKLGGSLKLSCSASGFTFSNYYMSWVRQTPEKRLELVADINGNGGSTYYPDTVKGRFTISRDNAKNTLYLQMSSLKSEDTALYYCVRRGGYYALDYWGQGTTVTVSS
# VL: DVVMTQTPLSLPVSLGDQASISCRSSQSLVHINGNTYLHWYLQKPGQSPKLLIYRVSNRFSGVPDRFSGSGSGTDFTLKISRVEAEDLGVYFCSQSTHVPWTFGGGTKLELKR
# notes: Monoclonal mouse antibody from a hybridoma; Detected with anti-mouse IgG; also called antibodies secreted by cell line DSM ACC2987; anti-IsaA MAB
# Assays:
# Assay in all cases: peptide array on glass slide, fluorescent secondary antibody;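 further: binding of a hybridoma-secreted monoclonal antibody to immobilized oligopeptide spots, compared with control antibodies, detected through a fluorescence-labeled secondary antibody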
# [1] = target: T1, IsaA oligopeptide SEQ ID NO: 34
# Description: (§1) Each oligopeptide was immobilized on a small spot on a glass side. Binding of the monoclonal antibodies secreted by the hybridoma cell line DSM ACC2987 and of control antibodies to these spots was examined upon incubation with these antibodies by binding of fluorescence labeled secondary antibodies and detecting fluorescence intensities.
# [2] = target: T2, IsaA oligopeptide SEQ ID NO: 48
# Description: as §1
# [3] = target: T3, IsaA oligopeptide SEQ ID NO: 46
# Description: as §1
# [4] = target: T4, IsaA oligopeptide SEQ ID NO: 33
# Description: as §1
# [5] = target: T5, IsaA oligopeptide SEQ ID NO: 22
# Description: as §1
# [6] = target: T6, IsaA oligopeptide SEQ ID NO: 53
# Description: as §1
# [7] = target: T7, IsaA oligopeptide SEQ ID NO: 20
# Description: as §1
# [8] = target: T8, IsaA oligopeptide SEQ ID NO: 32
# Description: as §1
# [9] = target: T9, IsaA oligopeptide SEQ ID NO: 26
# Description: as §1
# [10] = target: T10, IsaA oligopeptide SEQ ID NO: 39
# Description: as §1
# [11] = target: T11, IsaA oligopeptide SEQ ID NO: 59
# Description: as §1
# [12] = target: T12, IsaA oligopeptide SEQ ID NO: 50
# Description: as §1
# [13] = target: T13, IsaA oligopeptide SEQ ID NO: 52
# Description: as §1
# [14] = target: T14, IsaA oligopeptide SEQ ID NO: 58
# Description: as §1
# [15] = target: T15, IsaA oligopeptide SEQ ID NO: 45
# Description: as §1
# [16] = target: T16, IsaA oligopeptide SEQ ID NO: 17
# Description: as §1
# [17] = target: T17, IsaA oligopeptide SEQ ID NO: 64
# Description: as §1
# [18] = target: T18, IsaA oligopeptide SEQ ID NO: 51
# Description: as §1
# [19] = target: T19, IsaA oligopeptide SEQ ID NO: 35
# Description: as §1
# [20] = target: T20, IsaA oligopeptide SEQ ID NO: 42
# Description: as §1
# [21] = target: T21, IsaA oligopeptide SEQ ID NO: 27
# Description: as §1
# [22] = target: T22, IsaA oligopeptide SEQ ID NO: 61
# Description: as §1
# [23] = target: T23, IsaA oligopeptide SEQ ID NO: 57
# Description: as §1
# [24] = target: T24, IsaA oligopeptide SEQ ID NO: 9
# Description: as §1
# [25] = target: T25, IsaA oligopeptide SEQ ID NO: 21
# Description: as §1
# [26] = target: T26, IsaA oligopeptide SEQ ID NO: 11
# Description: as §1
# [27] = target: T27, IsaA oligopeptide SEQ ID NO: 47
# Description: as §1
# [28] = target: T28, IsaA oligopeptide SEQ ID NO: 63
# Description: as §1
# [29] = target: T29, IsaA oligopeptide SEQ ID NO: 24
# Description: as §1
# [30] = target: T30, IsaA oligopeptide SEQ ID NO: 25
# Description: as §1
# [31] = target: T31, IsaA oligopeptide SEQ ID NO: 43
# Description: as §1
# [32] = target: T32, IsaA oligopeptide SEQ ID NO: 54
# Description: as §1
# [33] = target: T33, IsaA oligopeptide SEQ ID NO: 18
# Description: as §1
binder,measurement,setting,value
B1,Binding (fluorescence intensity),[1],29500
same,Binding (fluorescence intensity),[2],1170
same,Binding (fluorescence intensity),[3],587
same,Binding (fluorescence intensity),[4],55500
same,Binding (fluorescence intensity),[5],21500
same,Binding (fluorescence intensity),[6],577
same,Binding (fluorescence intensity),[7],1050
same,Binding (fluorescence intensity),[8],59500
same,Binding (fluorescence intensity),[9],51800
same,Binding (fluorescence intensity),[10],491
same,Binding (fluorescence intensity),[11],1400
same,Binding (fluorescence intensity),[12],192
same,Binding (fluorescence intensity),[13],285
same,Binding (fluorescence intensity),[14],1320
same,Binding (fluorescence intensity),[15],235
same,Binding (fluorescence intensity),[16],17700
same,Binding (fluorescence intensity),[17],379
same,Binding (fluorescence intensity),[18],139
same,Binding (fluorescence intensity),[19],506
same,Binding (fluorescence intensity),[20],579
same,Binding (fluorescence intensity),[21],442
same,Binding (fluorescence intensity),[22],479
same,Binding (fluorescence intensity),[23],16800
same,Binding (fluorescence intensity),[24],273
same,Binding (fluorescence intensity),[25],33300
same,Binding (fluorescence intensity),[26],101
same,Binding (fluorescence intensity),[27],252
same,Binding (fluorescence intensity),[28],645
same,Binding (fluorescence intensity),[29],9360
same,Binding (fluorescence intensity),[30],49300
same,Binding (fluorescence intensity),[31],371
same,Binding (fluorescence intensity),[32],570
same,Binding (fluorescence intensity),[33],25300
